Source: the supplement of paper PMC10724198

Experiments:
[1] = system: Saccharomyces cerevisiae; assay: protein stability index of tFT-peptide fusion in deletion strain of DOA10 (PSI (0-1 scale)); higher = more stable (slower turnover)
Procedure: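 MPS profiling in S. cerevisiae of two library types built from selected 12-aa C-degron peptides (IN1, IN2, LN1, LN3, VN2, R1-R5, W1-W3, Atg1 and Rpa12 C-termini): saturation mutagenesis libraries and C-terminal +1 capping libraries (13 aa). Each peptide is fused to the C-terminus of a sfGFP-mCherry timer, after a GGGS linker. Cells are FACS-sorted into 8 mCherry/sfGFP bins and sequenced. PSI runs from 0 (unstable) to 1 (stable), measured once in wild type and in the das1Δ or doa10Δ background.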

[2] = system: Saccharomyces cerevisiae; assay: protein stability index of tFT-peptide fusion in wild type (PSI (0-1 scale)); higher = more stable (slower turnover); conditions: genetic background: wild type
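Wherever protein stability index of tFT-peptide fusion in deletion strain of DOA10 is given: PSI per variant is the weighted mean of its sequencing read distribution over the sorted stability bins, counting only variants with over 10 reads summed across bins.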
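Wherever protein stability index of tFT-peptide fusion in wild type is given: PSI derived as read-weighted mean over the 8 sorting bins, only variants exceeding 10 total reads kept, mCherry placed adjacent to the peptide and sfGFP distal.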

| Sequence | protein stability index [1] | protein stability index [2] |
| --- | --- | --- |
| AITLPMCPLHLR | 0.68 | 0.566 |
| AITLPMCPLILR | 0.656 | 0.238 |
| AITLPMCPLKLR | 0.668 | 0.549 |
| AITLPMCPLLLD | 0.684 | 0.608 |
| AITLPMCPLLLK | 0.653 | 0.269 |
| AITLPMCPLLLM | 0.545 | 0.505 |
| AITLPMCPLLRR | 0.717 | 0.62 |
| AITLPMCPLLSR | 0.594 | 0.573 |
| AITLPMCPLLTR | 0.606 | 0.561 |
| AITLPMCPLLYR | 0.652 | 0.529 |
| AITLPMCPLQLR | 0.68 | 0.608 |
| AITLPMCPLVLR | 0.646 | 0.233 |
| AITLPMCPMLLR | 0.661 | 0.392 |
| AITLPMLPLLLR | 0.633 | 0.125 |
| AITLPMQPLLLR | 0.639 | 0.238 |
| AITLPMTPLLLR | 0.644 | 0.229 |
| AITLPRCPLLLR | 0.662 | 0.265 |
| AIYLPMCPLLLR | 0.617 | 0.268 |
| AYTLPMCPLLLR | 0.657 | 0.171 |
| CITLPMCPLLLR | 0.635 | 0.118 |
| CIVSLPILLFFR | 0.566 | 0.0595 |
| CLCSLPILLFFR | 0.615 | 0.106 |
| CLFSLPILLFFR | 0.581 | 0.0583 |

| Sequence | protein stability index [1] | protein stability index [2] |
| --- | --- | --- |
| CLQSLPILLFFR | 0.631 | 0.0983 |
| CLVCLPILLFFR | 0.494 | 0.104 |
| CLVSLHILLFFR | 0.292 | 0.144 |
| CLVSLPCLLFFR | 0.639 | 0.064 |
| CLVSLPILGFFR | 0.661 | 0.625 |
| CLVSLPILIFFR | 0.53 | 0.0649 |
| CLVSLPILLAFR | 0.594 | 0.115 |
| CLVSLPILLDFR | 0.643 | 0.553 |
| CLVSLPILLFFD | 0.583 | 0.433 |
| CLVSLPILLFFL | 0.45 | 0.293 |
| CLVSLPILLFFQ | 0.53 | 0.313 |
| CLVSLPILLFFRK | 0.57 | 0.115 |
| CLVSLPILLFFRQ | 0.362 | 0.0783 |
| CLVSLPILLFFRV | 0.413 | 0.0545 |
| CLVSLPILLFFRW | 0.473 | 0.0557 |
| CLVSLPILLFFV | 0.385 | 0.206 |
| CLVSLPILLFHR | 0.637 | 0.481 |
| CLVSLPILLFIR | 0.46 | 0.0496 |
| CLVSLPILLFKR | 0.665 | 0.413 |
| CLVSLPILLFWR | 0.638 | 0.0447 |
| CLVSLPILLFYR | 0.585 | 0.116 |
| CLVSLPILSFFR | 0.658 | 0.581 |
| CLVSLPISLFFR | 0.656 | 0.101 |

| Sequence | protein stability index [1] | protein stability index [2] |
| --- | --- | --- |
| CLVSLPIYLFFR | 0.607 | 0.0617 |
| CLVSLPPLLFFR | 0.661 | 0.0903 |
| CLVSLPQLLFFR | 0.655 | 0.0822 |
| CLVSLSILLFFR | 0.286 | 0.183 |
| CLVSVPILLFFR | 0.565 | 0.064 |
| CLVSWPILLFFR | 0.595 | 0.0554 |
| CLWSLPILLFFR | 0.594 | 0.0887 |
| CMVSLPILLFFR | 0.584 | 0.0703 |
| GLAMCSVGCWFR | 0.661 | 0.268 |
| GLYCCSVGCWFR | 0.658 | 0.342 |
| GLYMCIVGCWFR | 0.364 | 0.214 |
| GLYMCSLGCWFR | 0.658 | 0.283 |
| GLYMCSMGCWFR | 0.676 | 0.321 |
| GLYMCSVACWFR | 0.441 | 0.228 |
| GLYMCSVGCAFR | 0.629 | 0.614 |
| GLYMCSVGCEFR | 0.625 | 0.594 |
| GLYMCSVGCQFR | 0.647 | 0.618 |
| GLYMCSVGCRFR | 0.654 | 0.625 |
| GLYMCSVGCWFE | 0.512 | 0.474 |
| GLYMCSVGCWFG | 0.478 | 0.456 |
| GLYMCSVGCWFP | 0.636 | 0.607 |
| GLYMCSVGCWFRG | 0.635 | 0.334 |
| GLYMCSVGCWFRP | 0.62 | 0.287 |

| Sequence | protein stability index [1] | protein stability index [2] |
| --- | --- | --- |
| GLYMCSVGCWFRQ | 0.182 | 0.113 |
| GLYMCSVGCWFRS | 0.521 | 0.267 |
| GLYMCSVGCWFRW | 0.621 | 0.231 |
| GLYMCSVGCWGR | 0.659 | 0.625 |
| GLYMCSVGCWNR | 0.64 | 0.618 |
| GLYMCSVGCYFR | 0.638 | 0.425 |
| GLYMCSVGDWFR | 0.689 | 0.677 |
| GLYMCSVGIWFR | 0.409 | 0.165 |
| GLYMCSVGMWFR | 0.577 | 0.307 |
| GLYMCSVKCWFR | 0.462 | 0.415 |
| GLYMCSYGCWFR | 0.677 | 0.299 |
| GSYMCSVGCWFR | 0.678 | 0.411 |
| ILVSLPILLFFR | 0.545 | 0.111 |
| KLVSLPILLFFR | 0.612 | 0.0816 |
| RETRLDAIYFRI | 0.667 | 0.545 |
| RKTRLDAIYFRI | 0.628 | 0.49 |
| RSARVLLPLYFR | 0.687 | 0.336 |
| RSLRPLLPLYFR | 0.688 | 0.316 |
| RSLRVLCPLYFR | 0.652 | 0.305 |
| RSLRVLFPLYFR | 0.684 | 0.196 |
